The DeepSol protein solubility set

Test: soluble on expression in E. coli; label from the status in PepcDB or PDB records

## MIFTYNKEHVGDVLMVIVKDSKGAKLNCERKGKVTRIFLEKNKETVAWNIFAVSNLLDLNGNGQVFLTDEELAVLNAELAKEGFEEKLENNAAAKFVVGEIVEMVAHPDSDHLNICQVKIAEDKTVQIVAGAPNARVGLKTIVALPGAMMPSGGLIFPGNLRGEKSFGMLCSPRELALPKAPQKRGIIELSTDAVIGQAFDAGKHWKGLEHHHHHH
  soluble on expression in E. coli: not soluble

## GPGSMRSAQLPSKLSSAAGSCKHWVVSVPNSSESYRCFCSLIDRALQPGTCHPYSVRFRLEHLLPADWSLLLGWCRRLTSCGGSFTYTSPGDISEQTESVGAVDDSEGHPAVVNAAFMHVVERCHGDFVPNNMIYHELQRRYTVYAPASPPPPEGPEDFTSFLGALQDSVCDGCLASLSEGDGNVGEDPLASQVPSLEATKHNQKVLGVGAAASMESEAHRQQGELLFNFFPHRVVVSDGIPCHSTHFVVMVNLKPVVPWHLMVVPIRCVGTLSALSAAEMEDLGHMIHLTISVLSHVLVKPAVTGTGDTSSNGGSRVERGCSPHSIGSPVPASVVGGGGFSIAIQQGELAGQTVPHLHVHVIPFDPRGKLAGEPEDEEQQRRQPPRTGAQMRKETEFLRPHFVRLANEKNMRGICATCG
  soluble on expression in E. coli: not soluble

## SAGTGLVAGEVVVDALPYFDQGYEAPGVREAAAALVEEETRRYRPTKNYLSYLTAPDYSAFETDIMRNEFERLAARQPIELLSMKRYELPAPSSGQKNDITAWQECVNNSMAQLEHQAVRIENLELMSQHGCNAWKVYNENLVHMIEHAQKELQKLRKHIQDLNWQRKNMQLTAGSKLREMESNWVSLVSKNYEIERTIVQLENEIYQIKQQHGEANKENIRQDF
  soluble on expression in E. coli: soluble

## NVYDLANELERAVRALPEYQAVLTAKSAIESDADAQVLWQDFLATQSKVQEMMQSGQMPSQEEQDEMSKLGEKIESNDLLKVYFDQQQRLSVYMSDIEKIVFAPMQDL
  soluble on expression in E. coli: soluble

## MSLEPIGNVIKKIVKERNLGSKEDILNQVLQDPDINAFLQANKAKIDQKMIKNSMSGLYEFYSQKRNPSKVMAGYAPQLFLNGKVIDVRYAPTQAKVAQDRKRAAKKRLHLIDLPGRLHDVELSKIDITDDRNQVLTLIYDFLNKYSKDSHQQGLYLSGDFGVGKTYILAGLANYVVTNMEKDVVFLHVPTFIAGLASHFGDNSLQDEIRRLSECDLLILDDIGAETLSQWSRDDVLGVILQARMDNVLPTFFSSNLDMEALESHFEETRNATDPVKARRLMQRIRFLAKEVVVSGPDRRNSLREGHHHHHH
  soluble on expression in E. coli: soluble

## MRGSHHHHHHGSADAYPSKAIRVIVPFAPGGSTDIIARLVTQRMSQELGQPMVVENKGGAGGAIGASEAARAEPDGYTLSIATVSTMAVNPACRPKDLPYDPIKDFQPVTNFANTANVVAVNPKFPAKDFKGFLEELKKNPGKYSYGSSGTCGVLHLMGESFKMATGTDIVHVPYKGSGPAVADAVGGQIELIFDNLPSSMPQIQAGKLRAMAIAWPTRIDAIKDVPTFADAGFPVLNQPVWYGLLAPKGTPMDVVNKLRDAAVVALKDPKVIKALDDQGSAPSGNTPEEFAKEIKEQYDWAQDVVKKQNIKLD
  soluble on expression in E. coli: soluble

## MTVDSIPLNTGAQLPLFGLGTWQVKDEAELTVALRAALDAGYRLIDTAHLYQNEHIIGKVLHEYISSGKLKREDIFVTSKLPFTAHAPEDVPKCVESQLKALQLEYIDLYLIHCPFPFKHQEGSFAPLMENGELAVTEIAHIDTWRALEKLYKEGKLKALGVSNFSCNQLQALYDAAEVKPANQQVECHIYWPQQELRALCKKLGVTVTAYAPLGSPGRKAARPDGVWPEGDPLLEPIVKQLAAKYHKTAAQILIRHLTQHGISTIPKSVSPDRIVENISTFDFKLSDEDMHTLNSIETRTRLFIADFAVKHPFFPHDDIDTSKVPKVGIRLH
  soluble on expression in E. coli: soluble

## MAHHHHHHMGPTPYQDKPYPVQPHNLNEFQQPPDTWRKSPFMSKLMDQALPVYDDVVTGSGRLYWQEPAKVWHLFEADDTLILEEHDREEWNERPYVAVNHLYEPPIGSEERPIRVEAVGNPGDQQIVMCFGNCAPHVPQSTYYMMMKGYSKNKCPMCQQWFYIHNRPWLVMHPDWTDEPAADEGPAYTFAEIEAEFDRDFHEFAVYLNAE
  soluble on expression in E. coli: not soluble

## DGTSQLAELVDAAAERLEVADPVAAFKWRAQLPIEDSGRVEQQLAKLGEDARSQHIDPDYVTRVFDDQIRATEAIEYSRFSDWKLNPASAPPEPPDLSASRSAIDSLNNRMLSQIWSHWSLLSAPSCAAQLDRAKRDIVRSRHLDSLYQRALTTATQSYCQALPPA
  soluble on expression in E. coli: soluble

## MSQPSGPPIGFSNPDYIPPKALDLLKPALTIRAPPEETGMLGELQEDVLQVLSLPCRHTNACLPACLQSLPILCSF
  soluble on expression in E. coli: soluble

## STSSDPQSHNVFVYGSILEPAVAAVILDRTADTVPAVLHGYHRYKLKGLPYPCIVSSDSGKVNGKVITGVSDAELNNFDVIEGNDYERVTVEVVRMDNSEKVKVETYVWVNKDDPRMYGEWDFEEWRVVHAEKFVETFRKMLEWNKNPNGKSMEEAVGSLLSSGD
  soluble on expression in E. coli: soluble

## MASINLIKSLKLYKEKIWSFDFSQGILATGSTDRKIKLVSVKYDDFTLIDVLDETAHKKAIRSVAWRPHTSLLAAGSFDSTVSIWAKEESADRTFEMDLLAIIEGHENEVKGVAWSNDGYYLATCSRDKSVWIWETDESGEEYECISVLQEHSQDVKHVIWHPSEALLASSSYDDTVRIWKDYDDDWECVAVLNGHEGTVWSSDFDKTEGVFRLCSGSDDSTVRVWKYMGDDEDDQQEWVCEAILPDVHKRQVYNVAWGFNGLIASVGADGVLAVYEEVDGEWKVFAKRALCHGVYEINVVKWLELNGKTILATGGDDGIVNFWSLEKAA
  soluble on expression in E. coli: soluble

## MQFLSPLILFTSCTLLATSLLAAEQAPPPSECLIKSQQISSQIQDAKTEGNKAEQSGLEKALAEVNANCTETSLLKQREQKVLDAKREVSRRQTDLNKAMDKGDPEKINKRKDKLAESRKELQEAQTDLEKVQSDDLEHHHHHH
  soluble on expression in E. coli: not soluble

## MAKLDKKVYERELELLQIELVKLQEWVKQEKLKLVVIFEGRDAAGKGGVIKTITEKLNPRVCRVAALPAPTEKEKTQWYFQRYVAHLPAGGEIVLFDRSWYNRAGVEKVMGFCSDEEYQEFLRSCPEFERMLQRSGIILLKYWFSVSDEEQERRFIERINTPLKRWKFSPMDLESRQRWAAYSRAKDEMFAYTDTKHCPWWVVPSDDKKRARLNCISHLLSSVEYQEIEHAPITLPEINKQGYVRPPIEDQTFVPQRY
  soluble on expression in E. coli: not soluble

## MEETKRLQKVYQLFAESTTERIPTDRLVDVLRFAGYIISESYIGELLSSIPGETLDFGQLVDVCERIREREITREELQNSFRRLDVDNTSYIDAGRLVQILSSGENRFSDEEIEELLNILNPDGDGKICYDLVIKNIFGY
  soluble on expression in E. coli: not soluble

## MFMSTDEVRRAFLSFFESKGHQIVESSSLVPANDPTLLFTNAGMNQFKDCFLGLEKRAYTRATTAQRCVRAGGKHNDLENVGFTARHHTFFEMLGNFSFGDYFKEDAIQYAWEFLTDVLQLPKERLLVTVYETDDEAFDIWNKKVGIPADRIIRIGDKKGGKKFDSDNFWQMGDTGPCGPCTEIFYDHGDHIWGGPPGSPEEDGDRFIEIWNNVFMQFNRHADGTMEPLPKPSVDTGMGIERISAIMQGVHSNYEIDVFQTLIKAAADAIGYQDLTNQSLRVVADHIRSCAFLIVDGVMPSNEGRGYVLRRIIRRAVRHGNKLGAQGAFFHKLVGPLAEVMGTAGVELKKQQALVEKVLRIEEENFGRTLDRGMSILNDALDQLSGQVLDGETVFKLYDTYGFPADLTNDVARERGFSIDEAGFEQAMEEQRQRAREAGQFGTDYNSLIKSATNTEFCGYTASRGQSVVREMFVEGAEVSTLSAGDKAIIVLDNTPFYAESGGQCGDTGVLKTDAGIFHVEDTQKLGNAIAHHGVIAQGVLATGDQVDAIVDEKRRAAISLNHSATHLLHAALRKVLGEHVAQKGSLVRAETLRFDFSHLEAMTAAEIKEVERLVNQEVRRNHSIETNIMNIDEAKAKGAMALFGEKYDDQVRVLSMGDFSTELCGGIHASNTGDIGLFKIISEGGIAAGIRRIEAVTGEGALDYLDAQQAQHDAKVSEMAAKAKLLEKEIQQLKDKLAAKESAGLINQVKQIAGVNVLVAQLNGADNKALRGMVDDLKNQLSSGIIMLGNVAEGKVGLIAGVTNDLTNKVKAGELVNMVALQVGGKGGGRPDMAQAGGTDAHALPSALESVDAWIAERL
  soluble on expression in E. coli: not soluble

## MEKSLKNYKTLQQLFVRRLKAGVRPVDADEHTVVSPVDAVIEDMGTIRENCEMIVKGKPYSIAEMLGSVEAAQPYVNGFFFILYLSPSHYHRIHSPISGVIEKQWALGRKSYPVNRLGLKYGRRPLEKNYRLITEVTAGGKRLAIVKIGAMFVNSIELTHEGEQLVKGEEMAYFSFGSTVVLLFERGSFAPDPRIVAPMPIKVGERLGYWCEAHER
  soluble on expression in E. coli: not soluble

## MQPSIAPSTPIPRQETVELVYRIFGDVLVPLEQVRERWFRNLNKENFSKALACGRIALPVTTLDDSHKAMQFVALDHLAAYVDQRANQAGSARRAQPGADSIAS
  soluble on expression in E. coli: not soluble

## MYETYHSGWIETITGSMFSGKSEELIRRLRRGIYAKQKVVVFKPAIDDRYHKEKVVSHNGNEIEAINISTAQEILNHKLEEVNVIGIDEVQFFEDDIVNIVEKLAENGHRVIVAGLDMDFRGEPFKPMPKLLAVSEHITKLQAVCSVCGSPSSRTQRLINGEPAKVDDPIILVGANESYEPRCRAHHIVAPSENEKEEMLEHHHHHH
  soluble on expression in E. coli: not soluble

## SKGRPQIDSSKATDKINPMDFTFVEINEAVKLVEMGVATPQDIDTAIKLGLNRPFGPFELAKQFGAEQIAKRLEELAKQFGKKIFEPAKTLKEGKLEELLKAGKAE
  soluble on expression in E. coli: soluble

## YRQSQSRAARLRLLVDTGQELIQLPPEAMRKCVLQRACAFVAMDHGLLLEWGADNGVQTTARHGSKERLSTLETTADPLAIGPQWLERPGTHLPCVLLLPLRGADEGSFGTLVLANSVAISAPDGEDIESLQLLATLLAAHLENNRLLEALVARDRT
  soluble on expression in E. coli: soluble

## AHQTKVDTLIVTNSKAWKPFSYVSQDGEPKGILIDFWREYAERNHVRVEFLLLDWEESLRAVKEGRADVHAGLIYSEARDKYLDFGAVIMPIQTKLYVNKDMLAVDIKGVLTGEVELPIGLVKGSYEAEFVRANYPRASLVEYLNNDAMIRAAVEKNILYFVADLQVAN
  soluble on expression in E. coli: not soluble

## GRAPRNGEKVLVEFVSANPTGPLHVGHARQAALGDAICRLYDASGWDVTREFYYNDAGNQIDNLAISVQARGRGIAPDAPDYPTDGYKGDYIVEIARDFAARKSVQASDGQPVTATGDLDSLDDIRAFAVAYLRREQDLDLQAFGLAFDNYFLESSLYASGRVQETVDTLVAKGHTYEEGGALWLRTTELGTGDDKDRVMRKSEGGYTYFVPDVAYHKVKWERGFHHAVNIQGSDHHGTVARVRAGLQGLEAGIPKDFPAYVLHKMVKVMRGGEEVKISKRAGSYVTMRDLIDWVGRDAVRYFLIQRRADTEFVFDIDLALSKSDENPVYYIQYAHARICTMIGNSGA
  soluble on expression in E. coli: not soluble

## MGSDKIHHHHHHMTKRAYQYRFYPTPEQAQLLARTFGCVRFVYNAVLRYRTDAFYQRQERIGYVEANAYLTRMKKADETAFLNEVSSVPLQQCLRHQQAAFKHFFEGRARYPAFKNKRHRQAAEFTRSAFKYRNGQLFLAKCKEPLAIRWSRELPSEPTTITISKDSAGRYFVSCLCEFTPETLPVTPRMTGIDLGLKDLFITDQGERIGNPRHTAKYAARLAKAQRRLSKKKLGSANRAKARKRVARLHAKISDCRMDRLHKLSRRLINENQVVCVESLKVKNMLRNPSLAKAIADAGWGEFARQLEYKAQWAGRQLVRIDPWYPSSKRCSDCGHIKDALPLSVRAWDCPACGVTHDRDINAARNIKAAGLAVLALGENVSGMEPVSVSGSR
  soluble on expression in E. coli: not soluble
